Target: SecY(S329C)EG (E. coli) (UniProt P0AGA2)

B1: signal peptide from the precursor form of outer membrane protein A with a cysteine in the last position (peptide)
peptide: MKKTAIAIAVALAGFATVAQC
- characteristic lifetime of the open channels at φ = −140 mV after cross-linking by KTT: 14 s

From publication PMC7023257
